B1: FPPPP-cyto (EGFP fused to ActA amino acids 231-360, without the mitochondrial targeting sequence) (other)
chain: VNASDFPPPPTDEELRLALPETPMLLGFNAPATSEPSSFEFPPPPTDEELRLALPETPMLLGFNAPATSEPSSFEFPPPPTEDELEIIRETASSLDSSFTRGDLASLRNAINRHSQNFSDFPPIPTEEEL
notes: not shown: EGFP (enhanced green fluorescent protein, Clontech)
B2: FPPPP-mito (EGFP fused to ActA amino acids 231-610, four EVH1-binding FPPPP repeats and the mitochon (other)
chain: VNASDFPPPPTDEELRLALPETPMLLGFNAPATSEPSSFEFPPPPTDEELRLALPETPMLLGFNAPATSEPSSFEFPPPPTEDELEIIRETASSLDSSFTRGDLASLRNAINRHSQNFSDFPPIPTEEELNGRGGRPTSEEFSSLNSGDFTDDENSETTEEEIDRLADLRDRGTGKHSRNAGFLPLNPFASSPVPSLSPKVSKISAPALISDITKKTPFKNPSQPLNVFNKKTTTKTVTKKPTPVKTAPKLAELPATKPQETVLRENKTPFIEKQAETNKQSINMPSLPVIQKEATESDKEEMKPQTEEKMVEESESANNANGKNRSAGIEEGKLIAKSAEDEKAKEEPGNHTTLILAMLAIGVFSLGAFIKIIQLRKNN
notes: not shown: EGFP (enhanced green fluorescent protein, Clontech); the ActA portion is fused to its C-term
B3: VASP (endogenous, in Rat2 fibroblasts) (other)
chain: ETVICSSRATVMLYDDSNKRWLPAGTGPQAFSRVQIYHNPTANSFRVVGRKLQPDQQVVINCAIIRGVKYNQATPIFHQWRDARQVWGLNFGSKEDAAQFAIGMANALEALEGGGPPPAPAPPAWSTQNGPSPEELEQQKRQPEHLERRVSNAGGPPAPPAGGPPPPPGPPPPPGPPPPPGLPPSGVSGAGHGTGVAPPPAPPLPTAQGPSSGGSGAPGLAAAIAGAKLRKVSKEEASGGPLAPKAENSRGTGGGLMEEMNAMLARRRKATQVGEKPPKDESASQEESEARIPAQSEPVRRPWEKNSTTLPRMKSSSSVTTSEAHPSVPSSSDDSDLERVKQELVEEVRKELQKMKEEIIEVFVQELRKRGSP
notes: whole, on cells; also called vasodilator-stimulated phosphoprotein

Experiments:
[1] = molecular target: B3; assay: immunofluorescence in Rat2 cells expressing the construct
[2] = molecular target: T1, vinculin (endogenous, in Rat2 fibroblasts) (rat (Rat2 fibroblasts), UniProt P85972 1-1066); assay: immunofluorescence in FPPPP-mito Rat2 cells
T1 construct: whole, on cells
T1 sequence: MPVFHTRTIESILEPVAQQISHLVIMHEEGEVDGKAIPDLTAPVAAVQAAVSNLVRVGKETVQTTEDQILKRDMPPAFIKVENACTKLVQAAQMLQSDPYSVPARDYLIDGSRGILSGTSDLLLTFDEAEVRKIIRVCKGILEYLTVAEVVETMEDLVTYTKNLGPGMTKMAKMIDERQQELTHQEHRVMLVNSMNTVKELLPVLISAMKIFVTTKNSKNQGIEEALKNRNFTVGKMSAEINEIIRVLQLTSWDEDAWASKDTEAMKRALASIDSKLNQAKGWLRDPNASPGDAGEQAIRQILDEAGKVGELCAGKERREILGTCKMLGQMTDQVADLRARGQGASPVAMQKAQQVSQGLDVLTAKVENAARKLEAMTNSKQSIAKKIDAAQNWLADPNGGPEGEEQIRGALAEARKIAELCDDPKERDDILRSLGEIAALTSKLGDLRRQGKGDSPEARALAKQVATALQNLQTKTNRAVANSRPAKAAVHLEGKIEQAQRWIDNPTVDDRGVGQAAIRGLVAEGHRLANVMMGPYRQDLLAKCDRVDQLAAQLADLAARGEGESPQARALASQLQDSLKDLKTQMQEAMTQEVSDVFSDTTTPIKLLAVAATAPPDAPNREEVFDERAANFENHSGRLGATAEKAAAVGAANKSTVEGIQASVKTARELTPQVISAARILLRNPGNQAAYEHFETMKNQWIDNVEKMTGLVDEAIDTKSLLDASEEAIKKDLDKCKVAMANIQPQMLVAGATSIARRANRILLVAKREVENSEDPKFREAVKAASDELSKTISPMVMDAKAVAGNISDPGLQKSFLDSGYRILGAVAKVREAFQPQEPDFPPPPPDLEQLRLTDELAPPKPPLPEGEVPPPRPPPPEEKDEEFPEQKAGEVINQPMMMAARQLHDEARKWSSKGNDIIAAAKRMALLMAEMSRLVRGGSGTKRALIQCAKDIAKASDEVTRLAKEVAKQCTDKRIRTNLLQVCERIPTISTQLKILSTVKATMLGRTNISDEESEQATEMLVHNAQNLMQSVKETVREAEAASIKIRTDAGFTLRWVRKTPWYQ

[3] = molecular target: T2, p34 component of the Arp2/3 complex (endogenous, in Rat2 fibroblasts) (rat (Rat2 fibroblasts), UniProt P85970 1-300); assay: immunofluorescence in FPPPP-mito Rat2 cells
T2 construct: whole, on cells

[4] = molecular target: B2; assay: immunofluorescence co-localisation in Rat2 cells expressing the construct

Binder: B1
- binding result [1]: binds

Binder: B2
- binding result [2]: no binding
- binding result [3]: no binding

Binder: B3
- binding result [4]: binds

Source: patent publication US6716597 (MIT, dated 2004)
